Laboratory results: the supplement of paper PMC11136658

System: peptide library, one residue held at a place counted from the Y acceptor
Test: relative phosphorylation of the sub-library (ratio to the mean residue at this position); higher = residue favoured
In short: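 Within 384-well plates, purified recombinant kinases phosphorylated biotinylated Tyr-centred peptide library mixtures over 90 min using 50 μM ATP spiked with γ-32P-ATP; each mixture fixed one residue at one position from −5 to +5. Streptavidin membrane capture, rinsing, phosphorimaging and ImageQuant gave the intensities. These were normalized per position to the sum of the 18 randomized residues (16 for the Ser/Thr-free library) and multiplied by that number.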

FGFR4, construct: aa442-end, human, sequence (P22455 442-802, looked up): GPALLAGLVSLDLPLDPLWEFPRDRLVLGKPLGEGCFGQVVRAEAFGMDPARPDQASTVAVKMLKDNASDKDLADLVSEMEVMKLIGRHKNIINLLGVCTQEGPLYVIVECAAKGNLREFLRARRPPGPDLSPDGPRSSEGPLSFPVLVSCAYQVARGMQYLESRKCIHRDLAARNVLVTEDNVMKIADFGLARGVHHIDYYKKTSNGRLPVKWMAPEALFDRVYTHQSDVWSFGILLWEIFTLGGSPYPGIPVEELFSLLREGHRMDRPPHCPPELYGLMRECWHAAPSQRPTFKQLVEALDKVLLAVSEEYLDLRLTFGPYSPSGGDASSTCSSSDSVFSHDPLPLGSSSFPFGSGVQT

FGFR4, construct: aa442-end, human (from UniProt P22455)
relative phosphorylation
Conditions	at +1	at +2	at +3	at +4	at +5	at -1	at -2	at -3	at -4	at -5
A fixed	0.811	0.623	0.572	0.823	2.94	0.585	1.06	0.944	1.14	1.01
D fixed	0.352	1.4	0.818	1.14	0.931	2.54	1.38	1.84	1.64	1.42
E fixed	0.566	2.01	0.647	1.39	0.71	2.03	1.75	2.52	2.01	1.38
F fixed	1.94	1.17	1.42	0.906	1.21	0.91	0.593	0.712	0.88	0.793
G fixed	0.379	0.43	0.621	1.21	0.692	0.401	1.08	1.09	1.22	1.31
H fixed	1.55	0.88	0.767	1.13	0.954	0.985	1.05	1	0.977	1.08
I fixed	1.8	1.21	2.44	0.869	0.75	1.89	0.902	0.626	0.732	0.929
K fixed	0.29	0.37	0.27	0.602	0.913	0.311	0.693	0.614	0.699	0.845
L fixed	1.25	1.05	2.03	0.841	0.922	1.12	0.839	0.639	0.808	0.898
M fixed	1.53	1.1	1.53	1.07	0.841	0.828	0.681	0.834	0.767	0.908
N fixed	0.341	1.04	0.425	0.873	0.832	1.03	1.05	1.25	1.03	1.1
P fixed	0.49	0.708	0.891	1.37	0.769	0.65	1.19	0.862	1.1	1.17
Q fixed	0.678	0.705	0.524	0.94	0.927	0.646	1.11	0.901	1.07	1.03
R fixed	0.458	0.535	0.364	0.781	0.865	0.292	0.657	0.73	0.667	0.866
S fixed	0.799	0.864	0.579	0.938	0.916	0.467	1.07	1.07	0.849	0.856
T fixed	0.807	0.934	0.686	0.88	0.625	0.966	1	0.883	0.644	0.807
V fixed	1.74	1.2	1.92	0.817	0.81	1.38	1.25	0.683	0.741	0.779
W fixed	2.22	1.77	1.5	1.43	1.4	0.952	0.639	0.794	1.02	0.811
pThr fixed	0.826	1.95	0.731	1	0.75	1.29	1.3	1.84	1.85	1.29
pTyr fixed	3.85	6.17	1.24	1.34	0.82	7.16	1.79	2.69	2.45	1.36
